Key:
[1] = target: T1, human integrin β1 (enriched membrane protein extract of transfected HEK293T cells) (human, UniProt P05556 21-798, limits assumed); test: SPR, integrin over immobilized ANGPTL4 on a GLC chip, global fit to Langmuir 1:1 model
T1 construct: Membrane extract enriched on a sucrose step gradient before SPR; also called integrins B1
Procedure: Immunoprecipitates were probed with anti-Src for normalization. Activated Src, Na⁺/H⁻ exchanger 1 and catalase were assessed using cognate antibodies. Representative pictures from three experiments. (h) Intracellular ROS of A-5RT3CTRL and A-5RT3ANGPTL4 evaluated by 5-(and 6-)-chloromethyl-2′,7′-dichlorodihydro-fluorescein diacetate acetyl ester. Data are normalized to total protein content. (i) Activities of caspases in A-5RT3ANGPTL4 after 2 h suspension. Values (mean±S.D.) represent a fold change above A-5RT3CTRL (n=3). *:p<0.05, **:p<0.01.
Purifided fibrinogen-like fragment of ANGPTL4 (cANGPTL4) was immobilized onto ProteOn GLC chip by amine coupling as recommended by the manufacturer (Bio-Rad). Different concentrations of integrins were introduced into the GLC chip at a flow rate of 25 μl/min for […] with running buffer (50 mM Tris, pH8.0, 100 mMNaC1). […] The affinity constants of the 6 mAbs for ANGPTL4 were determined using the one shot Kinetics protocol as described by manufacturer (Bio-Rad).
Purified fibrinogen-like fragment of ANGPTL4 (cANGPTL4) was immobilized onto ProteOn GLC chip by amine coupling, as recommended by the manufacturer (Bio-Rad). […] The affinity constants of the 6 mAbs for ANGPTL4 were determined using the One-Shot Kinetics protocol as described by manufacturer (Bio-Rad).

[2] = target: T2, human integrin β5 (enriched membrane protein extract of transfected HEK293T cells) (human, UniProt P18084 24-799, limits assumed); test: SPR, integrin over immobilized ANGPTL4, global fit to Langmuir 1:1 model
T2 construct: Membrane extract enriched on a sucrose step gradient before SPR; also called integrins B5; integrin 5
Procedure: Purifided fibrinogen-like fragment of ANGPTL4 (cANGPTL4) was immobilized onto ProteOn GLC chip by amine coupling as recommended by the manufacturer (Bio-Rad). Different concentrations of integrins were introduced into the GLC chip at a flow rate of 25 μl/min for […] with running buffer (50 mM Tris, pH8.0, 100 mMNaC1). […] Global fitting of the data to a Languir 1:1 model was used to determine the association (Kₒₙ) dissociation (Koff) and affinity constant (KD) using scrubber2 (Biologic Software Pty Ltd). […] The affinity constants of the 6 mAbs for ANGPTL4 were determined using the one shot Kinetics protocol as described by manufacturer (Bio-Rad).
Purified fibrinogen-like fragment of ANGPTL4 (cANGPTL4) was immobilized onto ProteOn GLC chip by amine coupling, as recommended by the manufacturer (Bio-Rad). Different concentrations of integrins were introduced into the GLC chip at a flow rate of 25 μl/min for […] with running buffer (50 mM Tris, pH 8.0, 100 mM NaCl). […] Global fitting of the data to a Langmuir 1:1 model was used to determine the association (kₒₙ), dissociation (koff) and affinity constant (KD) using Scrubber2 (BioLogic Software Pte Ltd). […] The affinity constants of the 6 mAbs for ANGPTL4 were determined using the One-Shot Kinetics protocol as described by manufacturer (Bio-Rad).

T2 sequence (P18084 24-799 limits assumed): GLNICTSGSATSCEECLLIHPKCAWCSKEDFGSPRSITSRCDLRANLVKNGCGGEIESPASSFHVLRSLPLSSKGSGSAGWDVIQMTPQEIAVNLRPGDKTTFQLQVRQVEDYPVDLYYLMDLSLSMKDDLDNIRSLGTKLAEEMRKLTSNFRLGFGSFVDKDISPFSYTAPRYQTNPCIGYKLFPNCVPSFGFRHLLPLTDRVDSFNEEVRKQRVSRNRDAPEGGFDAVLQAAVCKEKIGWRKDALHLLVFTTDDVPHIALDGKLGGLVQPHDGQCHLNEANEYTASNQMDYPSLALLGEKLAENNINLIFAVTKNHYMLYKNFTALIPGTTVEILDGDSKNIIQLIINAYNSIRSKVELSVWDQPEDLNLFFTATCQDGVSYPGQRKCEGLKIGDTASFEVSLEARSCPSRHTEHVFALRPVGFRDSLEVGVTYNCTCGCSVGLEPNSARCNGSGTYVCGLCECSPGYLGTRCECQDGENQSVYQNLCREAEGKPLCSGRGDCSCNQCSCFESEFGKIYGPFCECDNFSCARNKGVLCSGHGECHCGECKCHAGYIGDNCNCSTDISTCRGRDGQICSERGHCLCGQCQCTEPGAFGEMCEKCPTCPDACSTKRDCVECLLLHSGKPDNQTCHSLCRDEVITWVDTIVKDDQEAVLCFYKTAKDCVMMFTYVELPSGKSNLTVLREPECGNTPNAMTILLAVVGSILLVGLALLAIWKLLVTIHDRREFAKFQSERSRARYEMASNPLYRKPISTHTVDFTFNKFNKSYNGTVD
T1 sequence (P05556 21-798 limits assumed): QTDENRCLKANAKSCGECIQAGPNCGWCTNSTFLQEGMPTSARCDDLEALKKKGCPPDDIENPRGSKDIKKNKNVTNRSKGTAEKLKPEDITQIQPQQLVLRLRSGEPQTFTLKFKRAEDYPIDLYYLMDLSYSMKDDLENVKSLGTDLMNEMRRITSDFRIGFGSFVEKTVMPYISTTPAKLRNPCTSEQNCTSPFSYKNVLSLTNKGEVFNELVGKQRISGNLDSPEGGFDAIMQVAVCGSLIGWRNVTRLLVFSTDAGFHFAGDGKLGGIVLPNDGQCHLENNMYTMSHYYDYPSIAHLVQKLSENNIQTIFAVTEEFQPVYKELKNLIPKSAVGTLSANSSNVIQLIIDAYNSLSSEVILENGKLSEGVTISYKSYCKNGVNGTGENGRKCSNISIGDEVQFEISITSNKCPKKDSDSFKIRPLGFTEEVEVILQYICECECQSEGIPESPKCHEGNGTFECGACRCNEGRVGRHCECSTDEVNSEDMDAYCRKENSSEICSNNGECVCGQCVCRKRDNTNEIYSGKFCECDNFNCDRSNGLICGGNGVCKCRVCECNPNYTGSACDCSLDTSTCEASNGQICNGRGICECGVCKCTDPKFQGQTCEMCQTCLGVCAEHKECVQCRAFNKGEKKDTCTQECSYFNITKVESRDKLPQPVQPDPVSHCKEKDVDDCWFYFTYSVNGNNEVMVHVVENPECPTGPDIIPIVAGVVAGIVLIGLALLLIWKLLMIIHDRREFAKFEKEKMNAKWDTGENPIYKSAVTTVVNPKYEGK

B1: recombinant C-terminal fibrinogen-like fragment of human ANGPTL4 (cANGPTL4, a.a. 186-406) (ligand, UniProt Q9BY76 186-406, looked up)
chain: RDCQELFQVGERQSGLFEIQPQGSPPFLVNCKMTSDGGWTVIQRRHDGSVDFNRPWEAYKAGFGDPHGEFWLGLEKVHSITGDRNSRLAVQLRDWDGNAELLQFSVHLGGEDTAYSLQLTAPVAGQLGATTVPPSGLSVPFSTWDQDHDLRRDKNCAKSLSGGWWFGTCSHSNLNGQYFRSIPQQRQKLKKGIFWKTWRGRYYPLQATTMLIQPMAAEAAS
notes: range 186-406; also called immobilized-ANGPTL4; fibrinogen-like fragment of ANGPTL4; not shown: N-terminal histidine tag
B1 was tested, and the Kd [1] was roughly 100 nM and the Kd [2] was roughly 100 nM.

From US20120207770A1 (NANYANG TECHNOLOGICAL UNIVERSITY, published 2012)
